Laboratory results: publication PMC10798858

Biological target: Laa1-myc (budding yeast (S. cerevisiae)) (UniProt P39526)
Assay: co-IP

UniProt P39526, sequence (P39526 whole entry, the tested form may be a part): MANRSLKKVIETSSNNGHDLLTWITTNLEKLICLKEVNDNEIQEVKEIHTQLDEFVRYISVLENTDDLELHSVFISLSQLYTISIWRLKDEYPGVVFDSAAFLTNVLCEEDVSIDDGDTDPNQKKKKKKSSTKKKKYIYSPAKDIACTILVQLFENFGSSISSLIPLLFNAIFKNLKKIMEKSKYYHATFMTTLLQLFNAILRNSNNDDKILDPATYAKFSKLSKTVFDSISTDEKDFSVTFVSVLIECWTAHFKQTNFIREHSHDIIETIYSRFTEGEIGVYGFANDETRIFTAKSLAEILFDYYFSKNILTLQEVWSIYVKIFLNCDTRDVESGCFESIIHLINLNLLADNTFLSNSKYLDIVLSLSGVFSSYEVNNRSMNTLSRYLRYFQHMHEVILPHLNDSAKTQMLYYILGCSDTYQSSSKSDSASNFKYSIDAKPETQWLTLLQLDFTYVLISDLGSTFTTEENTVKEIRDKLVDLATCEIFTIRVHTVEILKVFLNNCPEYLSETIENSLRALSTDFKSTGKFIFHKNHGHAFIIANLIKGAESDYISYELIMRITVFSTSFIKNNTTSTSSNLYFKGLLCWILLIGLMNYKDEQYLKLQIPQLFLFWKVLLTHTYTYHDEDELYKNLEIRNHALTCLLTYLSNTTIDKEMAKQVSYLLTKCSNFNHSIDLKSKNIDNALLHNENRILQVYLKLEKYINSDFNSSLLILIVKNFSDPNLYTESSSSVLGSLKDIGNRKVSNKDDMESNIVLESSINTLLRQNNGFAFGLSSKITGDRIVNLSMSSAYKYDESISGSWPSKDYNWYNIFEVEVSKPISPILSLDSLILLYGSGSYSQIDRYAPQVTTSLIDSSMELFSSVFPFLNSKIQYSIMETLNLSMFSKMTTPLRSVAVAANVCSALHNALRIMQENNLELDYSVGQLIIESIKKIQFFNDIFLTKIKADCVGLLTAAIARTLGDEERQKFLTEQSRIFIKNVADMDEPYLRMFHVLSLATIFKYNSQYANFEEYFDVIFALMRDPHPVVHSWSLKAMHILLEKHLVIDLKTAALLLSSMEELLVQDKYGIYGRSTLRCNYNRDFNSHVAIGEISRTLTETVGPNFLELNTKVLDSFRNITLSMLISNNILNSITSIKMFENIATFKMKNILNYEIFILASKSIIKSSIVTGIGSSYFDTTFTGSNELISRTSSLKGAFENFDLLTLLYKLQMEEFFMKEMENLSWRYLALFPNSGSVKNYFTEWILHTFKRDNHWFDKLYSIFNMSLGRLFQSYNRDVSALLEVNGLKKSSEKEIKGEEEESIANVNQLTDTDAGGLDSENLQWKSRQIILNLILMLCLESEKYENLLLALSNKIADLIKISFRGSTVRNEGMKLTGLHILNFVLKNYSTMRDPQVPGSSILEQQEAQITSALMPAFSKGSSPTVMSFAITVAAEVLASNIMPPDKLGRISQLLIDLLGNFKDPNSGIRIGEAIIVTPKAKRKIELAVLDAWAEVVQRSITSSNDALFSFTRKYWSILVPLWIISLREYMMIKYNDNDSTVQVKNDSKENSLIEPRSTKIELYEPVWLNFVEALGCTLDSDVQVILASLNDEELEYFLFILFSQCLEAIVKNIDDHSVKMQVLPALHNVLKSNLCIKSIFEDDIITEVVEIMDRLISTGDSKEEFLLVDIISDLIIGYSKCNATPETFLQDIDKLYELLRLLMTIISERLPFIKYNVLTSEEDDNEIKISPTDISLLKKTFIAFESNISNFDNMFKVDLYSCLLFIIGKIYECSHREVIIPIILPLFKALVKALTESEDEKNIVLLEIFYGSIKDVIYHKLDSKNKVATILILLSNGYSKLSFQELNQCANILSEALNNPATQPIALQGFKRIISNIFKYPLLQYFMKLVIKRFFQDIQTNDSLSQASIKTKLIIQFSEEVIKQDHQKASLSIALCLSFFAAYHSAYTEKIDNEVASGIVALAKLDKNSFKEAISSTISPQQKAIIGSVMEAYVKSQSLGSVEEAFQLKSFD

Substance	interaction with Laa1, percent of wild type (% of wild-type levels)
Lft1-ΔHR1 tagged with 6-HIS-TEV-3FLAG (HTF) (from UniProt Q03703 1-340) (natural protein)	60
Lft1-ΔHR3 tagged with 6-HIS-TEV-3FLAG (HTF) (from UniProt Q03703 1-340) (natural protein)	60
